Source: US20090074779A1

Target: TrkC, Q16288
Experiment: SPR (BIAlite), receptor amine-coupled on CM4 chip, ligand injected, 25 C
Conditions: remark: other sources report otherwise

Chain of TrkC, Q16288 (Q16288 32-429 limits assumed): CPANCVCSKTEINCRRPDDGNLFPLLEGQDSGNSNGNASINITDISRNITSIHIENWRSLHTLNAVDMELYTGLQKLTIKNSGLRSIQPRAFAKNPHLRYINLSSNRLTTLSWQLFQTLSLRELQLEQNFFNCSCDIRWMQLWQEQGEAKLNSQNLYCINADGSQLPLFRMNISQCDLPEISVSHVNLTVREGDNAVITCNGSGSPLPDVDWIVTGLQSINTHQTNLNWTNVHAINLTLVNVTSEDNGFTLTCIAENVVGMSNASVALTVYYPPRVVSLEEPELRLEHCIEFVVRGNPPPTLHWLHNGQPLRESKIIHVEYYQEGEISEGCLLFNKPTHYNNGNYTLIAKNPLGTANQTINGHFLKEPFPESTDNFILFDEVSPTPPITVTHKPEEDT

Kd: 14 nM
B1: BDNF, P23560 129-247 (ligand, UniProt P23560 129-247, looked up)
chain: HSDPARRGELSVCDSISEWVTAADKKTAVDMSGGTVTVLEKVPVSKGQLKQYFYETKCNPMGYTKEGCRGIDKRHWNSQCRTTQSYVRALTMDSKKRIGWRFIRIDTSCVCTLTIKRGR
